Reference: patent US20260042834A1 (HBM ALPHA THERAPEUTICS, published 2026)
Numbering of substitutions follows the chain as printed. “And” between values parts separate entries of the source, which are not always exact repeats. Equal entries are not always repeated.

B1: PR302050 (antibody, human IgG1, kappa, V domains shown)
VH: EMQLVESGGGLVQPGGSLKLSCAASGFTFSNYWMNWVRQASGKGLEWVAEIRLKSNNYATHYAESVKGRFTISRDDSKSTVYLQMNSLKTEDTAVYYCTVGTLVYWGQGTLVTVSS
VL: DIVLTQSPDSLAVSLGERATINCRASQSVSTSTYNYMHWFQQKPGQPPKLLIKFASNLESGVPDRFSGSGSGTDFTLTISSLQAEDTAVYYCQHSWEIPYTFGQGTKLEIKR
notes: Humanized variant of PR301777
B2: PR302064 (antibody, human IgG1, kappa, V domains shown)
VH: B1 VH with Q13K, K19R, S41P
VL: B1 VL
notes: Humanized variant of PR301777
B3: PR302341-55 (antibody, human IgG1, kappa, V domains shown)
VH: QVQLVQSGAEVKKPGASVKVSCKASGYTFTDYFMKWVRQAPGQRLEWMGVINPNNADIFYNQKFKGRVTITRDTSASTAYMELSSLRSEDTAVYYCARGTDRALFAYWGQGTLVTVSS
VL: DVVMTQSPLSLPVTLGQPASISCRSGQSIVHSDGNTYLEWYQQRPGQSPRLLIYKVSNRFSGVPDRFSGSGSGTDFTLKISRVEAEDLGVYYCFQGSHIPWTFGGGTKVEIKR
notes: Humanized, PTM-removed variant of PR302341
B4: PR302309-8 (antibody, human IgG1, kappa, V domains shown)
VH: QIQLVQSGSELKKPGASVKVSCKASGYTFTNYGMNWVRQAPGQGLEWMGWINTYTGEPIYTDDFKGRFVFSLDTSVSTAYLQISSLKAEDTAVYYCSRSTMITTGGVFAYWGQGTLVTVSS
VL: B3 VL with G26S, S28T, I99V
notes: Humanized variant of PR302309

Experiments:
biotinylated CRH [1] = target: T1, biotinylated CRH (human and mouse, not fully specified; biotinylated, position not stated); assay: Octet BLI, biotinylated CRH on SA sensor
T1 construct: also called Biotin-CRH; biotin-labeled CRH
T1 peptide: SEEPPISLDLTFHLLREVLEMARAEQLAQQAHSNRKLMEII

biotinylated CRH [2] = target: T1, biotinylated CRH; assay: competitive ELISA, coated 1st mAb; competitor hIgG1
Description: (§1) For epitope binding, a competitive ELISA was performed. Specifically, 1 μg/ml of capture antibody, 100 μl/well, was coated on a 96 well-plate at 4° C. overnight. Plates were blocked with ELISA blocking solution (containing 2% w/v BSA, 0.05% (v/v) Tween-20, pH 7.4 PBS buffer) at 37° C. for 1 hour. […] Subsequently, plates were washed and incubated with Streptavidin-Peroxidase (SIGMA, Cat: 52438-250UG) at 37° C. for 1 hour. 100 μL of 3,3′,5,5′-tetramethylbenzidine (TMB) substrate (Biopanda, Cat: TMB-S-003) was added, and the plates were incubated at room temperature for 15 minutes. 100 μL of ELISA stopping solution (Solarbio, Cat #: C1058) was added to terminate the reaction, and the optical density at 450 nm (OD450 nm) was determined by an ELISA plate reader (Molecular Devices, Spectra max 384 plus).

biotinylated CRH [3] = target: T1, biotinylated CRH; assay: competitive ELISA, coated 1st mAb; competitor PR004290
Description: as §1

biotinylated CRH [4] = target: T1, biotinylated CRH; assay: competitive ELISA, coated 1st mAb; competitor PR005660
Description: as §1

biotinylated CRH [5] = target: T1, biotinylated CRH; assay: competitive ELISA, coated 1st mAb; competitor PR006148
Description: as §1

biotinylated CRH [6] = target: T1, biotinylated CRH; assay: competitive ELISA, coated 1st mAb; competitor PR006152
Description: as §1

biotinylated CRH [7] = target: T1, biotinylated CRH; assay: competitive ELISA, coated 1st mAb; competitor PR301777
Description: as §1

biotinylated CRH [8] = target: T1, biotinylated CRH; assay: competitive ELISA, coated 1st mAb; competitor PR302050
Description: as §1

biotinylated CRH [9] = target: T1, biotinylated CRH; assay: competitive ELISA, coated 1st mAb; competitor PR302055
Description: as §1

biotinylated CRH [10] = target: T1, biotinylated CRH; assay: competitive ELISA, coated 1st mAb; competitor PR302064
Description: as §1

biotinylated CRH [11] = target: T1, biotinylated CRH; assay: competitive ELISA, coated 1st mAb; competitor PR302069
Description: as §1

[12] = target: T2, corticotropin-releasing hormone (CRH) peptide (human and mouse, not fully specified); assay: cell-based or functional assay
T2 peptide: T1 peptide

CRH (NT Biotin) = target: T3, CRH (NT Biotin) (human and mouse, not fully specified; biotin at the N-terminus); assay: ELISA, biotin peptide on streptavidin plate
T3 peptide: T1 peptide
In short: (§2)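 Streptavidin coat 2 μg/ml in PBS, o/n 4° C. TMB 15 min RT, stop solution, read OD450 nm.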

CRH (CT Biotin) = target: T4, CRH (CT Biotin) (human and mouse, C-terminal K-Biotin); assay: ELISA, biotin peptide on streptavidin plate
T4 construct: also called Peptide 4 (CRH-Biotin)
T4 peptide: T1 peptide
In short: as §2

hUCN1 (NT Biotin) = target: T5, hUCN1 (NT Biotin) (human, UniProt P55089 83-122, biotin at the N-terminus); assay: ELISA, biotin peptide on streptavidin plate
T5 construct: also called human UCN1 (NT biotin)
T5 peptide (looked up): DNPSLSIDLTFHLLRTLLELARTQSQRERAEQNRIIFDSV
In short: as §2

hUCN1 (CT Biotin) = target: T6, hUCN1 (CT Biotin) (human, UniProt P55089 83-122, biotin at the C-terminus); assay: ELISA, biotin peptide on streptavidin plate
T6 construct: also called human UCN1 (CT biotin)
T6 peptide (looked up): T5 peptide (looked up)
In short: as §2

N-Terminal CRH = target: T7, N-Terminal CRH (human and mouse, C-terminal K-Biotin); assay: ELISA, biotin peptide on streptavidin plate
T7 construct: also called N-Ter-CRH (CT-Bion)
T7 peptide: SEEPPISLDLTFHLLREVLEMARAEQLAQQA
In short: as §2

human UCN2 peptide [13] = target: T8, human UCN2 peptide (human, UniProt Q96RP3 72-109, limits assumed, not fully specified; biotin at N- or C-terminus in the ELISA); assay: ELISA on streptavidin-captured hUCN2 (NT biotin) and hUCN2 (CT biotin), mAb at 100 nM and 10 nM; axis labelled RLU, scale 0-4
T8 construct: also called hUCN2; hUCN2 (NT Biotin)
T8 peptide (looked up): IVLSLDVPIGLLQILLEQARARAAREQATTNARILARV
Description: (§3) Streptavidin (Thermo, Cat: 21125) was diluted in PBS with a concentration of 2 μg/mL. 100 μL of diluted streptavidin was added per well to ELISA microplates, and the plates were incubated overnight at 4° C. Plates were blocked with ELISA blocking solution (containing 2% w/v BSA, 0.05% (v/v) Tween-20, pH 7.4 PBS buffer) at 37° C. for 1 hour, and then incubated with either 1 μg/mL hUCN1 (NT Biotin), hUCN1 (CT Biotin), hUCN2 (NT Biotin), hUCN2 (CT Biotin), hUCN3 (NT Biotin), or hUCN3 (CT Biotin) for 1 hour at 37° C. […] 100 μl of TMB Substrate (Biopanda, Cat: TMB-S-003) was added, and the plates were incubated at room temperature for 15 minutes. 100 μL of ELISA stopping solution (Solarbio, Cat #: C1058) was then added to terminate the reaction, and the OD450 nm was determined by an ELISA plate reader (Molecular Devices, Spectra max 384 plus).

human UCN3 peptide [14] = target: T9, human UCN3 peptide (human, UniProt Q969E3 120-157, not fully specified; biotin at N- or C-terminus in the ELISA); assay: ELISA on streptavidin-captured hUCN3 (NT biotin) and hUCN3 (CT biotin), mAb at 100 nM and 10 nM; axis labelled RLU, scale 0-4
T9 construct: also called hUCN3; hUCN3 (NT Biotin)
T9 peptide (looked up): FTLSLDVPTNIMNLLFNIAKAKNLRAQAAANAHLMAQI
Description: as §3

human UCN1 peptide = target: T10, human UCN1 peptide (human, UniProt P55089 83-122, not fully specified; biotin at N- or C-terminus in the ELISA); assay: cell-based or functional assay
T10 peptide (looked up): T5 peptide (looked up)

human UCN2 peptide [15] = target: T8, human UCN2 peptide; assay: ELISA, biotinylated hUCN2 on streptavidin plates
Description: as §3

human UCN3 peptide [16] = target: T9, human UCN3 peptide; assay: ELISA, biotinylated hUCN3 on streptavidin plates
Description: as §3

biotinylated CRH [17] = target: T1, biotinylated CRH; assay: Octet in-tandem, row = 1st mAb; competitor (2nd mAb) PR005660
Description: (§4) SA sensors (Fortebio, Cat #18-5019) were hydrated in running buffer for 10 mins.

biotinylated CRH [18] = target: T1, biotinylated CRH; assay: Octet in-tandem, row = 1st mAb; competitor (2nd mAb) PR006669
Description: as §4

biotinylated CRH [19] = target: T1, biotinylated CRH; assay: Octet in-tandem, row = 1st mAb; competitor (2nd mAb) PR301777
Description: as §4

biotinylated CRH [20] = target: T1, biotinylated CRH; assay: Octet in-tandem, row = 1st mAb; competitor (2nd mAb) PR302334
Description: as §4

biotinylated CRH [21] = target: T1, biotinylated CRH; assay: Octet in-tandem, row = 1st mAb; competitor (2nd mAb) PR303394
Description: as §4

biotinylated CRH [22] = target: T1, biotinylated CRH; assay: Octet in-tandem, row = 1st mAb; competitor (2nd mAb) PR302341-34
Description: as §4

human UCN2 peptide [23] = target: T8, human UCN2 peptide; assay: ELISA on streptavidin-captured hUCN2 (NT biotin) and hUCN2 (CT biotin), mAb at 100 nM and 10 nM, OD450
Description: as §3

human UCN3 peptide [24] = target: T9, human UCN3 peptide; assay: ELISA on streptavidin-captured hUCN3 (NT biotin) and hUCN3 (CT biotin), mAb at 100 nM and 10 nM, OD450
Description: as §3

| Binder | Kd (biotinylated CRH [1]) [pM] | koff (biotinylated CRH [1]) [s⁻¹] | kon (biotinylated CRH [1]) [M⁻¹ s⁻¹] | % Inhibition (biotinylated CRH [2]) [%] | % Inhibition (biotinylated CRH [3]) [%] | % Inhibition (biotinylated CRH [4]) [%] | % Inhibition (biotinylated CRH [5]) [%] | % Inhibition (biotinylated CRH [6]) [%] | % Inhibition (biotinylated CRH [7]) [%] | % Inhibition (biotinylated CRH [8]) [%] | % Inhibition (biotinylated CRH [9]) [%] | % Inhibition (biotinylated CRH [10]) [%] | % Inhibition (biotinylated CRH [11]) [%] | CHO-CRE-hCRHR1 0.5 nM CRH IC50 [12] | EC50 (CRH (NT Biotin)) [pM] | EC50 (CRH (CT Biotin)) | EC50 (hUCN1 (NT Biotin)) | EC50 (hUCN1 (CT Biotin)) | EC50 (N-Terminal CRH) [pM] | further results |
| --- | --- | --- | --- | --- | --- | --- | --- | --- | --- | --- | --- | --- | --- | --- | --- | --- | --- | --- | --- | --- |
| B1 | < 1 | < 1e-07 | 470000 | 0 | 94 | 94 | 95 | 96 | 94 | 94 | 94 | 95 | 94 |  |  |  |  |  |  |  |
| B2 | < 1 |  |  | 1 | 93 | 94 | 94 | 94 | 94 | 95 | 95 | 95 | 95 | 531 pM and 664 pM | 30 | 26 pM and 23 pM | 118 pM and 142 pM | 208 pM and 256 pM | 22 | binding result (human UCN2 peptide [13]): no binding (tested: 100 nM); binding result (human UCN3 peptide [14]): no binding (tested: 100 nM) |
| B3 |  |  |  |  |  |  |  |  |  |  |  |  |  |  |  |  |  |  |  | potency on hUCN1-induced against CRH-induced hCRHR1 reporter activity (human UCN1 peptide): 267 fold lower; binding result (human UCN2 peptide [15]): no binding (tested: 100 nM); binding result (human UCN3 peptide [16]): no binding (tested: 100 nM) |
| B4 | 513 | 0.000136 | 266000 |  |  |  |  |  |  |  |  |  |  | 1700 pM | 25 | 29 pM | 126 pM | 1880 pM | 25 | % Inhibition (biotinylated CRH [17]): 76%; % Inhibition (biotinylated CRH [18]): 76%; % Inhibition (biotinylated CRH [19]): 80%; % Inhibition (biotinylated CRH [20]): 65%; % Inhibition (biotinylated CRH [21]): 77%; % Inhibition (biotinylated CRH [22]): 74%; binding result (human UCN2 peptide [23]): no binding (tested: 100 nM); binding result (human UCN3 peptide [24]): no binding (tested: 100 nM) |
